In patent US20260152562A1:
Blank lines part the entries; values can stand above or below the substance they belong to.

Legend:
Experiment in all cases: cell-based or functional assay
[1] = molecular target: Anti-EGFR Activatable Antibody c225v5-3954-5002; for Cleavability (%) Neutrophil Elastase: test concentration or dose not given here
[2] = molecular target: Anti-EGFR Activatable Antibody c225v5-3954-5011
[3] = molecular target: Anti-EGFR Activatable Antibody C225v5-3954-4008 (linker form not stated)
[4] = molecular target: Anti-EGFR Activatable Antibody c225v5-3954-3001
[5] = molecular target: Anti-EGFR Activatable Antibody c225v5-3954-5004
[6] = molecular target: Anti-EGFR Activatable Antibody c225v5-3954-5006; for Cleavability (%) MMP14: test concentration or dose not given here; for Cleavability (%) Neutrophil Elastase: test concentration or dose not given here
[7] = molecular target: Anti-EGFR Activatable Antibody c225v5-3954-5007; for Cleavability (%) Matriptase: test concentration or dose not given here; for Cleavability (%) Neutrophil Elastase: test concentration or dose not given here
[8] = molecular target: Anti-EGFR Activatable Antibody c225v5-3954-5012
[9] = molecular target: Anti-EGFR Activatable Antibody c225v5-3954-5008; for Cleavability (%) Matriptase: test concentration or dose not given here; for Cleavability (%) Neutrophil Elastase: test concentration or dose not given here
[10] = molecular target: Anti-EGFR Activatable Antibody c225v5-3954-5009
[11] = molecular target: Anti-EGFR Activatable Antibody c225v5-3954-5005
[12] = molecular target: Anti-EGFR Activatable Antibody with substrate 4001 (linker form not stated); for Cleavability (%) MMP14: test concentration or dose not given here
[13] = molecular target: Anti-EGFR Activatable Antibody c225v5-3954-2001
[14] = molecular target: Anti-EGFR Activatable Antibody c225v5-3954-5010
[15] = molecular target: Anti-EGFR Activatable Antibody c225v5-3954-5003; for Cleavability (%) MMP14: test concentration or dose not given here
[16] = molecular target: Anti-EGFR Activatable Antibody c225v5-3954-5013; for Cleavability (%) Matriptase: test concentration or dose not given here
[17] = molecular target: Anti-EGFR Activatable Antibody c225v5-3954-5001; for Cleavability (%) MMP14: test concentration or dose not given here; for Cleavability (%) Matriptase: test concentration or dose not given here
[18] = molecular target: Anti-EGFR Activatable Antibody c225v5-3954-4011SL
[19] = molecular target: Anti-EGFR Activatable Antibody c225v5-3954-4002SL
[20] = molecular target: Anti-EGFR Activatable Antibody c225v5-3954-4009SL
[21] = molecular target: Anti-EGFR Activatable Antibody c225v5-3954-4006SL
[22] = molecular target: Anti-EGFR Activatable Antibody c225v5-3954-4001LL; for MMP14 Cleavability (%): test concentration or dose not given here
[23] = molecular target: Anti-EGFR Activatable Antibody c225v5-3954-4010SL
[24] = molecular target: Anti-EGFR Activatable Antibody c225v5-3954-4005SL; for MMP14 Cleavability (%): test concentration or dose not given here
[25] = molecular target: Anti-EGFR Activatable Antibody c225v5-3954-4006LL; for MMP14 Cleavability (%): test concentration or dose not given here
[26] = molecular target: Anti-EGFR Activatable Antibody c225v5-3954-4015LL
[27] = molecular target: Anti-EGFR Activatable Antibody c225v5-3954-4007SL
[28] = molecular target: Anti-EGFR Activatable Antibody c225v5-3954-4003SL
[29] = molecular target: Anti-EGFR Activatable Antibody c225v5-3954-4014SL; for MMP14 Cleavability (%): test concentration or dose not given here
[30] = molecular target: Anti-EGFR Activatable Antibody c225v5-3954-4004LL
[31] = molecular target: Anti-EGFR Activatable Antibody c225v5-3954-4012SL
[32] = molecular target: Anti-EGFR Activatable Antibody c225v5-3954-4001SL
[33] = molecular target: Anti-EGFR Activatable Antibody c225v5-3954-4008LL

Sequence of recombinant matriptase (Q9Y5Y6 615-855 limits assumed): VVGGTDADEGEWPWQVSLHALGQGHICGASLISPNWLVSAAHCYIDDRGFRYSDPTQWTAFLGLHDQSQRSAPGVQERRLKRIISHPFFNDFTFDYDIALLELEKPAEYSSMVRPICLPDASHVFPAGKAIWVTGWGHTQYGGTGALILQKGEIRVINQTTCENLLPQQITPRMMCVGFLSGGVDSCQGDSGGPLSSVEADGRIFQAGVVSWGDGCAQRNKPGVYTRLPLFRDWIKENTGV
Sequence of recombinant MMP2 (P08253 110-660 limits assumed): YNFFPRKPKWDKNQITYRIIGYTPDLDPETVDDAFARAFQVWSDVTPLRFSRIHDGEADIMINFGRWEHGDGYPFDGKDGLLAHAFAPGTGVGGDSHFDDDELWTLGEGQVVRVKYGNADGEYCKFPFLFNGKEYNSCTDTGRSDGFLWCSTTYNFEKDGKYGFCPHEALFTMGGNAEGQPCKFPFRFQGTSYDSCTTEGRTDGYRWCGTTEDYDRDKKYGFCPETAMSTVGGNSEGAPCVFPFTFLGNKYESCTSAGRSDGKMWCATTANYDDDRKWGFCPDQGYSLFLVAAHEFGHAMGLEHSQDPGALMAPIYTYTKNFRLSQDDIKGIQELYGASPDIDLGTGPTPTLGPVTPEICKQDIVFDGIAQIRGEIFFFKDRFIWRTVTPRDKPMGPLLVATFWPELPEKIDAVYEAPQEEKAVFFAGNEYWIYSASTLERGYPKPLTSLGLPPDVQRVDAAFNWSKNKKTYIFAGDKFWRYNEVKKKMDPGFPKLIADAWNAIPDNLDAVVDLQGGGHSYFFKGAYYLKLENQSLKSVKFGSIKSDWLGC
Sequence of recombinant neutrophil elastase (P08246 30-267 limits assumed): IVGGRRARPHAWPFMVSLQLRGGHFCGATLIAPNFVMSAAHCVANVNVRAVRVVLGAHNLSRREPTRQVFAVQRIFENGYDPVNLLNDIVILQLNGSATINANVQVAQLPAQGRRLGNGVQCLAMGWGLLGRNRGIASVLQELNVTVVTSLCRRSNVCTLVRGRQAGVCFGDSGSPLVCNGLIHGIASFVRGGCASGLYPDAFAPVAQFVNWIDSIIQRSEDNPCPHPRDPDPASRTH

Substance: recombinant matriptase (from UniProt Q9Y5Y6 615-855) (enzyme)
Cleavability (%) Matriptase [1]: 100%
Cleavability (%) Matriptase [2]: 80%
Kcat/Km (M^-1 s^-1) Matriptase [2]: 1430 M⁻¹ s⁻¹
Cleavability (%) Matriptase [3]: 40%
Kcat/Km (M^-1 s^-1) Matriptase [3]: 476 M⁻¹ s⁻¹
Kcat/Km (M^-1 s^-1) Matriptase [4]: 5350 M⁻¹ s⁻¹
Cleavability (%) Matriptase [5]: 75%
Cleavability (%) Matriptase [6]: 100%
Kcat/Km (M^-1 s^-1) Matriptase [6]: 5370 M⁻¹ s⁻¹
Cleavability (%) Matriptase [7]: 100%
Kcat/Km (M^-1 s^-1) Matriptase [7]: 27200 M⁻¹ s⁻¹
Cleavability (%) Matriptase [8]: 0%
Cleavability (%) Matriptase [9]: 98%
Cleavability (%) Matriptase [10]: 100%
Cleavability (%) Matriptase [11]: 6%
Cleavability (%) Matriptase [12]: 0%
Kcat/Km (M^-1 s^-1) Matriptase [12]: 0 M⁻¹ s⁻¹
Cleavability (%) Matriptase [13]: 53%
Kcat/Km (M^-1 s^-1) Matriptase [13]: 2550 M⁻¹ s⁻¹
Cleavability (%) Matriptase [14]: 0%
Cleavability (%) Matriptase [15]: 99%
Cleavability (%) Matriptase [16]: 0%
Kcat/Km (M^-1 s^-1) Matriptase [16]: 0 M⁻¹ s⁻¹
Cleavability (%) Matriptase [17]: 100%

Substance: recombinant MMP14 (from UniProt P50281 112-538) (enzyme)
MMP14 Cleavability (%) [18]: 9.9%
Cleavability (%) MMP14 [1]: 58%
MMP14 Cleavability (%) [19]: 85.9%
Cleavability (%) MMP14 [2]: 7%
Kcat/Km (M^-1 s^-1) MMP14 [2]: 444 M⁻¹ s⁻¹
Cleavability (%) MMP14 [3]: 6%
Kcat/Km (M^-1 s^-1) MMP14 [3]: 230 M⁻¹ s⁻¹
MMP14 Cleavability (%) [20]: 0%
MMP14 Cleavability (%) [21]: 85.7%
Kcat/Km (M^-1 s^-1) MMP14 [4]: 17000 M⁻¹ s⁻¹
MMP14 Cleavability (%) [22]: 100%
Cleavability (%) MMP14 [5]: 19%
Cleavability (%) MMP14 [6]: 6%
Kcat/Km (M^-1 s^-1) MMP14 [6]: 564 M⁻¹ s⁻¹
MMP14 Cleavability (%) [23]: 0%
Cleavability (%) MMP14 [7]: 90%
Kcat/Km (M^-1 s^-1) MMP14 [7]: 9250 M⁻¹ s⁻¹
Cleavability (%) MMP14 [8]: 72%
Cleavability (%) MMP14 [9]: 55%
Cleavability (%) MMP14 [10]: 9%
MMP14 Cleavability (%) [24]: 24.4%
MMP14 Cleavability (%) [25]: 84.2%
Cleavability (%) MMP14 [11]: 34%
Cleavability (%) MMP14 [12]: 77%
Kcat/Km (M^-1 s^-1) MMP14 [12]: 6010 M⁻¹ s⁻¹
MMP14 Cleavability (%) [26]: 0%
Cleavability (%) MMP14 [13]: 58%
Kcat/Km (M^-1 s^-1) MMP14 [13]: 6330 M⁻¹ s⁻¹
Cleavability (%) MMP14 [14]: 11%
MMP14 Cleavability (%) [27]: 0%
Cleavability (%) MMP14 [15]: 20%
MMP14 Cleavability (%) [28]: 53.1%
MMP14 Cleavability (%) [29]: 30.5%
MMP14 Cleavability (%) [30]: 46.2%
MMP14 Cleavability (%) [31]: 0%
Cleavability (%) MMP14 [16]: 78%
Kcat/Km (M^-1 s^-1) MMP14 [16]: 7770 M⁻¹ s⁻¹
Cleavability (%) MMP14 [17]: 76%
MMP14 Cleavability (%) [32]: 96.5%
MMP14 Cleavability (%) [33]: 0%

Substance: recombinant MMP2 (from UniProt P08253 110-660) (enzyme)
Kcat/Km (M^-1 s^-1) MMP2 [2]: 3380 M⁻¹ s⁻¹
Kcat/Km (M^-1 s^-1) MMP2 [3]: 13000 M⁻¹ s⁻¹
Kcat/Km (M^-1 s^-1) MMP2 [4]: 310000 M⁻¹ s⁻¹
Kcat/Km (M^-1 s^-1) MMP2 [6]: 36900 M⁻¹ s⁻¹
Kcat/Km (M^-1 s^-1) MMP2 [7]: 98300 M⁻¹ s⁻¹
Kcat/Km (M^-1 s^-1) MMP2 [12]: 57600 M⁻¹ s⁻¹
Kcat/Km (M^-1 s^-1) MMP2 [13]: 13200 M⁻¹ s⁻¹
Kcat/Km (M^-1 s^-1) MMP2 [16]: 76500 M⁻¹ s⁻¹

Results, then the substance that gave them:

MMP9 Cleavability (%) [18]: 78.8%
Cleavability (%) MMP9 [1]: 37%
MMP9 Cleavability (%) [19]: 87.5%
Cleavability (%) MMP9 [2]: 55%
Kcat/Km (M^-1 s^-1) MMP9 [2]: 4180 M⁻¹ s⁻¹
Cleavability (%) MMP9 [3]: 100%
Kcat/Km (M^-1 s^-1) MMP9 [3]: 18700 M⁻¹ s⁻¹
MMP9 Cleavability (%) [20]: 22.1%
MMP9 Cleavability (%) [21]: 92.9%
Kcat/Km (M^-1 s^-1) MMP9 [4]: 50500 M⁻¹ s⁻¹
MMP9 Cleavability (%) [22]: 100%
Cleavability (%) MMP9 [5]: 86%
Cleavability (%) MMP9 [6]: 81%
Kcat/Km (M^-1 s^-1) MMP9 [6]: 33900 M⁻¹ s⁻¹
MMP9 Cleavability (%) [23]: 18%
Cleavability (%) MMP9 [7]: 77%
Kcat/Km (M^-1 s^-1) MMP9 [7]: 25300 M⁻¹ s⁻¹
Cleavability (%) MMP9 [8]: 52%
Cleavability (%) MMP9 [9]: 100%
Cleavability (%) MMP9 [10]: 78%
MMP9 Cleavability (%) [24]: 70.5%
MMP9 Cleavability (%) [25]: 90.8%
Cleavability (%) MMP9 [11]: 72%
Cleavability (%) MMP9 [12]: 100%
Kcat/Km (M^-1 s^-1) MMP9 [12]: 8840 M⁻¹ s⁻¹
MMP9 Cleavability (%) [26]: 90%
Cleavability (%) MMP9 [13]: 22%
Kcat/Km (M^-1 s^-1) MMP9 [13]: 394 M⁻¹ s⁻¹
Cleavability (%) MMP9 [14]: 0%
MMP9 Cleavability (%) [27]: 69.5%
Cleavability (%) MMP9 [15]: 100%
MMP9 Cleavability (%) [28]: 6%
MMP9 Cleavability (%) [29]: 0%
MMP9 Cleavability (%) [30]: 29.8%
MMP9 Cleavability (%) [31]: 56.5%
Cleavability (%) MMP9 [16]: 62%
Kcat/Km (M^-1 s^-1) MMP9 [16]: 10400 M⁻¹ s⁻¹
Cleavability (%) MMP9 [17]: 76%
MMP9 Cleavability (%) [32]: 94.5%
MMP9 Cleavability (%) [33]: 55.2%
Substance: recombinant MMP9 (from UniProt P14780 107-707) (enzyme)

Cleavability (%) Neutrophil Elastase [1]: 67%
Cleavability (%) Neutrophil Elastase [2]: 100%
Kcat/Km (M^-1 s^-1) Neutrophil Elastase [2]: 665000 M⁻¹ s⁻¹
Cleavability (%) Neutrophil Elastase [3]: 28%
Cleavability (%) Neutrophil Elastase [4]: 52%
Kcat/Km (M^-1 s^-1) Neutrophil Elastase [4]: 19100 M⁻¹ s⁻¹
Cleavability (%) Neutrophil Elastase [5]: 84%
Cleavability (%) Neutrophil Elastase [6]: 30%
Cleavability (%) Neutrophil Elastase [7]: 74%
Kcat/Km (M^-1 s^-1) Neutrophil Elastase [7]: 24200 M⁻¹ s⁻¹
Cleavability (%) Neutrophil Elastase [8]: 55%
Cleavability (%) Neutrophil Elastase [9]: 66%
Cleavability (%) Neutrophil Elastase [10]: 31%
Cleavability (%) Neutrophil Elastase [11]: 81%
Cleavability (%) Neutrophil Elastase [12]: 37%
Cleavability (%) Neutrophil Elastase [13]: 18%
Kcat/Km (M^-1 s^-1) Neutrophil Elastase [13]: 3170 M⁻¹ s⁻¹
Cleavability (%) Neutrophil Elastase [14]: 100%
Cleavability (%) Neutrophil Elastase [15]: 77%
Cleavability (%) Neutrophil Elastase [16]: 56%
Cleavability (%) Neutrophil Elastase [17]: 88%
Substance: recombinant neutrophil elastase (from UniProt P08246 30-267) (enzyme)

Cleavability (%) Legumain [1]: 21%
Cleavability (%) Legumain [2]: 0%
Cleavability (%) Legumain [3]: 0%
Cleavability (%) Legumain [4]: 0%
Cleavability (%) Legumain [5]: 27%
Cleavability (%) Legumain [6]: 0%
Cleavability (%) Legumain [7]: 0%
Cleavability (%) Legumain [8]: 7%
Cleavability (%) Legumain [9]: 0%
Cleavability (%) Legumain [10]: 0%
Cleavability (%) Legumain [11]: 0%
Cleavability (%) Legumain [12]: 0%
Cleavability (%) Legumain [13]: 5%
Cleavability (%) Legumain [14]: 0%
Cleavability (%) Legumain [15]: 0%
Cleavability (%) Legumain [16]: 9%
Cleavability (%) Legumain [17]: 0%
Substance: recombinant legumain (from UniProt Q99538 18-323) (enzyme)
